{
  "source": "paper PMC5622069",
  "key": {"[1]": {"target": "MnxF (Bacillus sp. PL-12)", "experiment": "native MS; surface-induced dissociation (SID) of the isolated 29+ Mnx complex at a low collision voltage of 40 V, ion mobility-MS; hexamer assigned after removal of most bound copper with EDTA"}, "[2]": {"target": "MnxG (Bacillus sp. PL-12)", "experiment": "native MS; surface-induced dissociation (SID) of the isolated 29+ Mnx complex at a low collision voltage of 40 V, ion mobility-MS; hexamer assigned after removal of most bound copper with EDTA"}},
  "data": [
    {"substance": "MnxE (natural protein)", "values": [
      {"measurement": "stoichiometry N (MnxE per MnxF (3:3))", "setting": "[1]", "result": 1},
      {"measurement": "stoichiometry N (MnxE per MnxG)", "setting": "[2]", "result": 3}
    ]},
    {"substance": "MnxE3F3 hexamer (complex)", "values": [
      {"measurement": "stoichiometry N (MnxG per hexamer)", "setting": "[2]", "result": 1}
    ]},
    {"substance": "MnxF (natural protein)", "values": [
      {"measurement": "stoichiometry N (MnxF per MnxG)", "setting": "[2]", "result": 3}
    ]}
  ]
}
